Experimental data published in patent publication US20230029635A1 (US Dept. of Health and Human Services, published 2023).

B1: 4S04 (Fab, V domains shown)
VH: QEQLKESGGRLVTPGTPLTLTCTASGFSLSTYAMIWVRQAPGKGLEYIGIISYGGSAYYASWAKGRFTISKTSTTVDLKITSPTTEDTATYFCARDRGFGYGYGIGYYGLDPWGPGTLVTVSS
VL: DGVMTQTPSSTSAAVEGTVTINCQASQSIGSYLSWYQQKPGQPPKLLIYQASKMASGVPSRFKGSGSGTQFTLTISNVQGEDAATYYCLGHYVGDWSFGAGTKVEIK
notes: Chimeric rabbit/human Fab, kappa, with 6xHis tag
B2: 3NS1 (Fab, V domains shown)
VH: QSVEESGGRLVTPGTPLTLTCTVSGFSLSNYIITWVRQAPGKGLEWIGMISTDGDTYYANWAKGRFTISKTSTTANLKITSPTTEDTATYFCARGLTNFFIWGPGTLVTVSS
VL: QPVLTQSPSVSAALGASAKLTCTLSSAHKTYSIGWYQQHQGEAPRFLMQLRRDGSYTKGTGVPDHFSGSSSGADRYLIIPNVQADDEADYYCGVDYDGGYVFGGGTQLTVTG
notes: Chimeric rabbit/human Fab, lambda, with 6xHis tag; also called 3NS1 r/h-IgG1λ
B3: 4S10 (Fab, V domains shown)
VH: QSVEESRGRLVTPGTPLTLTCTVSGIDLSSSAITWVRQAPGKGLEWIGMISTDGATYYANWAKGRFTFSKTSTTADLKITSPTTEDTATYFCARGLTNFSIWGPGTLVTVSS
VL: QPVLTQSPSASAALGASAKLTCTLSSAHKTYTIAWYQQQPGESPRYLMLLKSDGSYTRGPGVPDRFSGSSSGADRYLIIPSVQADDEAGYYCGADYNGGYVFGGGTQLTVTG
notes: Chimeric rabbit/human Fab, lambda, with 6xHis tag
B4: 3NS3 (Fab, V domains shown)
VH: QSLEESGGGLVTPGTPLTLTCTVSGIDLSAYAMTWVRQAPGKGLEWIGMISTDGATYYASWAKGRFTISKTSTTADLTITSPTTEDTATYFCARGLTNFFIWGPGTLVTISS
VL: QPVLTQSPSASATLGSSAKLTCTLSSAHSTYTIAWYQQKQGESPRCLMYLKSDGSYTRGTGVPDRFSGSSSGADRYLIIPNVQADDEADYYCGADYSGGYLFGGGTQLTVTG
notes: as for B3
B5: MN66 (Fab, V domains shown)
VH: QSVEESGGRLVTPGTPLTLTCTVSGFSLSSYAMSWVRQAPGKGLEWIGIIYPNDITYYASWAKGRFTISKTSTTVDLKITSPTTEDTATYFCARVVSWPGYTTEYYFNIWGPGTLVTISS
VL: QFVLTQPQSVSGSLGQTVSMSCKCDSGNIDNYYVHWYQQHPGKAPTTVIYNDDQRPSGVPDRFSGSIDSTSNSASLTITGLLAEDEADYYCLSSVSSDNYVFGGGTQLTVTG
notes: Lambda
B6: 3N07 (Fab, V domains shown)
VH: QSLEESGGRLVTPGTPLTLTCTVSGFSLSRYTMAWVRQAPGKGLEYIGWIDSSGSTYYASWAKGRFTISKTSSTTVDLKMTSLTTEDTATYFCASGNDGGDPLYYGMDPWGPGTLVTVSS
VL: DGVMTQTPSSTSAAVGGTVTIKCQASQSIRSWLSWYQQKPGQPPKLLIYEASKLASGVPSRFKGSRSGTEYTLAISGVQREDAATYYCLGSIASDDTAFGAGTNVEIK
notes: Chimeric rabbit/human Fab, kappa, with 6xHis tag; also called Fab 3N07; 3N07 r/h-IgG1k
B7: d301 (Fab, V domains shown)
VH: QSLEESGGRLVTPGTPLTLTCTVSGFSLSTYTLGWVRQAPGKGLEYIGWIDSSGSAYYASWAKGRFTISKASSTTVDLKMAGLTTEDTATYFCASGNTGGDPLYYGMDPWGPGTLVTVSS
VL: DPVLTQTPSSTSAAVGGTVTIKCQASQNIGRWLAWYQQKPGQPPKLLIYRASDLASGVPSRFKGSGSGTQFTLTISGVQREDAATYYCLGSYSSSDSAFGGGTEVVVK
notes: Chimeric rabbit/human Fab, kappa, with 6xHis tag; also called Fab d301; d301 r/h-IgG1k
B8: 5S8 (Fab, V domains shown)
VH: QSVEESGGRLVTPGTPLTLTCTVSGFSLSSYAMTWVRQAPGKGLEWIGVIGTSGMRYYANWAKGRFTISKTSTTVDLKITSPTTEDTATYFCARANFYVGNDESTDAFDPWGPGTLVTVSS
VL: ALVMTQTPPSLSASVGETVRIRCLASEDIYNTISWYQQKPGKPPTLLIYGASNLKSGVPPRFSGSGSGTDYTLTIGGVQSEDAATYYCLGGYSYSSTGLTFGAGTKVEIK
notes: Chimeric rabbit/human Fab, kappa, with 6xHis tag in SPR, zymosan and JeKo-1 assays; also called Fab 5S8; 5S8 r/h-IgG1k
B9: 4S12 (Fab, V domains shown)
VH: QEQLVESGGRLVTPGTPLTLTCTVSGFSLSSYHMSWVRQAPGKGLEWIGIIYFTGDASYASWAKGRFTISKTSPTTVDLKITSPTTEDTATYFCARDTDWNSSRTIPFDPWGPGTLVTVSS
VL: SFVLTQPASVQVNLGQTVSLTCTADTLSRTYASWYQQKPGQAPVLLIYRDTSRPSGVPDRFSGSSSGNTATLTISGAQAGDEADYYCATSDGSGSSYQYVFGGGTQLTVTG
notes: as for B3
B10: 3N02 (Fab, V domains shown)
VH: QKQLVESGGRLVTPGGSLTLTCTISGIDLNTYGMTWVRQAPGKGLEYIGIIVSSGNTYYANWAQGRFTISKTSTTVDLKMTSLTASDTATYFCARGLGRAYSSGYGMDGWGPGTLVTVSS
VL: DPVLTQTPSSTSAAVGGTVTIKCQASQNIYTSLAWYQQKPGQPPKLLIYGASNLASGVPSRFKGSRSGTEYTLTISGVEREDAATYYCLGSYTQIDTTFGGGTKLEIK
notes: Chimeric rabbit/human Fab (rabbit variable domains, human kappa constant domain) with 6xHis tag in SPR, zymosan ELISA and flow cytometry; also called 3N02 r/h-IgG1k
B11: 3NS2 (Fab, V domains shown)
VH: QSVEESGGRLVTPGTPLTLTCTVSGIDLSSYSMGWVRQAPGKGLEWIGIIYNTGRIDYANWAKGRFTISKTSTTVDLKITSPTIGDTATYFCGRGYPGDIWGPGTLVTVSS
VL: DVVMTQTPSSVSAAVGGTVTIKCQASESIYSDLAWYQQKPGQRPKLLIYFASTLASGVPSRFKGSGSGTEYTLTISGVQREDAATYYCLGDYGNSWAFGAGTKVEIK
notes: as for B3

Key:
hFc-hC3d [1] = molecular target: T1, hFc-hC3d (human, UniProt P01024 1002-1303); assay: SPR (Biacore X100), hFc-hC3d captured by anti-human IgG CH2 mAb, Fab injected, 1:1 Langmuir
T1 construct: range 1002-1303; expressed in HEK293F cells, purified on Protein A; also called hFc-hC3d fusion protein; not shown: human Fc of vector pCEP4-hFc
T1 sequence (P01024 other isoform, or with tags, fused parts or gaps, form in doubt): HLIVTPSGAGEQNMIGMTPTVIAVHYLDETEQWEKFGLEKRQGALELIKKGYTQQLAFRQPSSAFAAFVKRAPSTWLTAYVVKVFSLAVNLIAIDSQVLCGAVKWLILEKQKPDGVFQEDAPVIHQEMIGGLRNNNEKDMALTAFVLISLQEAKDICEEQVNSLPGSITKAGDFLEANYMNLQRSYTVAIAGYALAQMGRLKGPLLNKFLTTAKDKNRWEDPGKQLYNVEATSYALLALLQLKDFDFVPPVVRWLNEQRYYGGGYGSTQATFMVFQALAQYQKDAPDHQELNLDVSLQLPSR
Protocol: (§1) Surface plasmon resonance (SPR) for the measurement of kinetic and thermodynamic parameters of the binding of purified antibodies to hC3d or mC3d antigens was performed on a Biacore X100 instrument using Biacore reagents and software (GE Healthcare, Chicago, Ill.). A mouse anti-human IgG CH2 mAb was immobilized on a CM5 sensor chip using reagents and instructions supplied with the Human Antibody Capture Kit (GE Healthcare). hFc-hC3d and hFc-mC3d fusion proteins were captured at a density not exceeding 400 RU. Each sensor chip included an empty flow cell for instantaneous background depletion. All binding assays used 1×HBS-EP+ running buffer (10 mM HEPES, 150 mM NaCl, 3 mM EDTA (pH 7.4), and 0.05% (v/v) surfactant P20) and a flow rate of 30 μL/min. All of the Fabs were injected at five different concentrations (dilution factor was 2), and the lowest concentration was tested in duplicates. The sensor chips were regenerated with 3 M MgCl₂ from the Human Antibody Capture Kit without any loss of binding capacity. Calculation of association (kₒₙ) and dissociation (koff) rate constants was based on a 1:1 Langmuir binding model. The equilibrium dissociation constant (KD) was calculated from koff/kₒₙ.

[2] = molecular target: T2, Jeko1 cell line deposited C3d (human, UniProt P01024 1002-1303, limits assumed); assay: flow cytometry: Fab at 2.5 µg/mL on JeKo-1 cells opsonized with 10 µg/mL rituximab and incubated with 50% C5-depleted human serum for 2 h with 0.5 U/mL CR1 or for 24 h (C3b/iC3b decayed to C3d)
T2 construct: domain: C3d; also called human C3d on JeKo-1 cells
T2 sequence (P01024 1002-1303 limits assumed): as the sequence (P01024 other isoform, or with tags, fused parts or gaps, form in doubt) above, with A9C counted along it
Protocol: FIG. 13 is a graph showing the binding activity of antibodies of the invention to different human C3 fragments. The binding of each chimeric rabbit/human Fab at 2.5 μg/mL to C3b/iC3b/(C3d), or C3d was determined by flow cytometry against JeKo-1 cells deposited with human C3 fragments after opsonization by 10 μg/mL rituximab (RTX) followed by incubation with 50% CS-depleted human serum for 2 h with or without 0.5 U/mL CR1 or 24 h. In the presence of CR1 or after treatment with serum for 24 h, most of C3 fragments had decayed from C3b/iC3b to C3d.
To deposit C3 fragments on zymosan, one hundred million of preactivated zymosan particles (Complement Technology, Inc.) were washed and then incubated with 50% pooled normal human complement serum (PNHCS) or normal BALB/c mouse or cynomolgus complement serum in 1 mL Dulbecco's phosphate-buffered saline (DPBS) at 37° C. for 1 h. For JeKo-1 cells, 10 μg/mL rituximab (RTX) was first used to opsonize cells followed by incubation with 50% CS-depleted PNHCS. To allow C3b/iC3b deposited on JeKo-1 cells to decay to C3d, the incubation time of cells with serum was prolonged to 24 h, or 0.5 U/mL CR1 (rhCD35, R&D Systems, Minneapolis, Minn.) was included during the incubation. […]

hFc-mC3d [3] = molecular target: T3, hFc-mC3d (mouse, UniProt P01027 1002-1303); assay: SPR, hFc-mC3d captured by anti-human IgG CH2 mAb, Fab injected
T3 construct: domain: C3d; also called hFc-mC3d fusion protein; not shown: human Fc of vector pCEP4-hFc
T3 sequence (P01027 other isoform, or with tags, fused parts or gaps): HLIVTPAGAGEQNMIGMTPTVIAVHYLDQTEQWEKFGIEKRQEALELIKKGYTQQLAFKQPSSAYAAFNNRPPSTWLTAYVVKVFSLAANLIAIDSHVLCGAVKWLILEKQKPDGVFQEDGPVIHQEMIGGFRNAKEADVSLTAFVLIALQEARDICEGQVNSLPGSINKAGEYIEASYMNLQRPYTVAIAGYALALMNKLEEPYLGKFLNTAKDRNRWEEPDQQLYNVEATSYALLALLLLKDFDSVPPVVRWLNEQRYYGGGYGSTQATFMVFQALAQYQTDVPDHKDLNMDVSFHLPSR

[4] = molecular target: T4, Mouse C3b/iC3b/C3d deposited on zymosan particles (mouse, UniProt P01027 1002-1303, limits assumed); assay: flow cytometry: His-tagged Fab at 5 µg/mL on zymosan particles opsonized with 50% mouse serum, mouse anti-6xHis Alexa Fluor 488
T4 construct: also called Zymosan deposited C3b/iC3b/(C3d) mouse
T4 sequence (P01027 1002-1303 limits assumed): as the sequence (P01027 other isoform, or with tags, fused parts or gaps) above, with A9C counted along it
Protocol: One million zymosan particles deposited with C3b/iC3b/C3d were added into one well of a V-bottom 96-well plate. Then 500 ng/100 μL of antibody was applied in each well at 37° C. for 1 h. After washing three times by phosphate buffered saline and TWEEN™ 20 (PBST), 100 μL of a 1:1000 dilution of a mouse anti-His tag mAb conjugated to ALEXA FLUOR™ 488 (Qiagen, Hilden, Germany) in 1% (w/v) bovine serum albumin (BSA)/DPBS was used to detect the antibody.
The cross reactivity of 5 μg/mL of antibodies of the invention with 6xHis tag to human, or cynomolgus, or mouse C3b/iC3b/C3d deposited on zymosan particles after incubation with 50% corresponding serum at 37° C. for 45 min was determined by flow cytometry with a secondary mouse anti-HIS mAb conjugated to ALEXA FLUOR™ 488. […] In Table 3, the relative level of affinity is shown by the number of plus or minus signs (e.g., +++=high affinity). m/h and r/h denote […], respectively, variable domains fused human constant domains; k, kappa light chain; λ, lambda light chain.

hFc-mC3d [5] = molecular target: T3, hFc-mC3d; assay: Table 3, column Mouse C3d; the SPR Kd on hFc-mC3d of Table 2
Protocol: as §1

hFc-hC3d [6] = molecular target: T1, hFc-hC3d; assay: Table 3, column Human C3d; rounded form of the SPR Kd on hFc-hC3d of Table 2
Protocol: as §1

hFc-mC3d [7] = molecular target: T3, hFc-mC3d; assay: SPR (Biacore X100), hFc-mC3d captured by anti-human IgG CH2 mAb, Fab injected, 1:1 Langmuir
Protocol: as §1

hFc-hC3d [8] = molecular target: T1, hFc-hC3d; assay: Table 3, column Human C3d; the SPR Kd on hFc-hC3d of Table 2
Protocol: as §1

hFc-mC3d [9] = molecular target: T3, hFc-mC3d; assay: Table 3, column Mouse C3d; rounded form of the SPR Kd on hFc-mC3d of Table 2
Protocol: as §1

| Binder | Kd (hFc-hC3d [1]) [nM] | binding result (hFc-mC3d [3]) | binding result [4] | Kd (hFc-mC3d [7]) [nM] | also measured |
| --- | --- | --- | --- | --- | --- |
| B1 | 4.11 |  |  |  |  |
| B2 |  | no binding | no binding (tested: 5 µg/mL) |  | binding result [2]: binds |
| B3 |  | no binding |  |  |  |
| B4 |  | no binding | no binding (tested: 5 µg/mL) |  |  |
| B5 | 0.31 |  |  |  |  |
| B6 | 3.1 |  |  | 132 | Kd (hFc-mC3d [5]): 132 nM; Kd (hFc-hC3d [6]): 3.1 nM |
| B7 | 0.99 |  |  | 22.9 | Kd (hFc-hC3d [8]): 0.99 nM; Kd (hFc-mC3d [9]): 23 nM |
| B8 | 3.35 |  |  | 9.04 | Kd (hFc-hC3d [6]): 3.4 nM; Kd (hFc-mC3d [9]): 9 nM |
| B9 |  | no binding | no binding (tested: 5 µg/mL) |  |  |
| B10 | 13.3 |  |  | 97.6 | Kd (hFc-hC3d [6]): 13 nM; Kd (hFc-mC3d [9]): 98 nM |
| B11 |  | no binding | no binding (tested: 5 µg/mL) |  |  |
